From publication PMC11940065 (2025)

Target: Methionine-1-linked triubiquitin (UniProt P0CG48 1-76; P0CG48 1-76; P0CG48 1-76)
Experiment: MST

Sequence of Methionine-1-linked triubiquitin (P0CG48 1-228, one chain of several): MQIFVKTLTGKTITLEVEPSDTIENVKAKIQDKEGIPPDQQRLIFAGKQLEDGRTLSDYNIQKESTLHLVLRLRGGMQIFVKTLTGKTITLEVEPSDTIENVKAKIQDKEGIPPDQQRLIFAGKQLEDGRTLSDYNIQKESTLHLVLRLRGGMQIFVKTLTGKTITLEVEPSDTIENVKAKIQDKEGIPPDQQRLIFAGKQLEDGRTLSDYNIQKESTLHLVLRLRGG

Kd [µM]	Binder
3.52	AHD1-UBAN E444F (domain or fragment) QRLNKALEEALSIQTPPSSPPTAFGSPFGAGALLRKQELVTQNELLKQQVKIFEEDFQRERSDRERMNEEKEELKKQVEKLQAQVTLSNAQLK
5.5	AHD1-UBAN E425Q (domain or fragment) QRLNKALEQALSIQTPPSSPPTAFGSPEGAGALLRKQELVTQNELLKQQVKIFEEDFQRERSDRERMNEEKEELKKQVEKLQAQVTLSNAQLK
